Target: FLAG-tagged full-length senataxin (SETX) (human) (UniProt Q7Z333)
Assay: co-IP; SETX immunoprecipitated, the IP'd material treated with or without RNase A; bands measured by densitometry; IgG only IP as negative control

UniProt Q7Z333, sequence (Q7Z333 whole entry): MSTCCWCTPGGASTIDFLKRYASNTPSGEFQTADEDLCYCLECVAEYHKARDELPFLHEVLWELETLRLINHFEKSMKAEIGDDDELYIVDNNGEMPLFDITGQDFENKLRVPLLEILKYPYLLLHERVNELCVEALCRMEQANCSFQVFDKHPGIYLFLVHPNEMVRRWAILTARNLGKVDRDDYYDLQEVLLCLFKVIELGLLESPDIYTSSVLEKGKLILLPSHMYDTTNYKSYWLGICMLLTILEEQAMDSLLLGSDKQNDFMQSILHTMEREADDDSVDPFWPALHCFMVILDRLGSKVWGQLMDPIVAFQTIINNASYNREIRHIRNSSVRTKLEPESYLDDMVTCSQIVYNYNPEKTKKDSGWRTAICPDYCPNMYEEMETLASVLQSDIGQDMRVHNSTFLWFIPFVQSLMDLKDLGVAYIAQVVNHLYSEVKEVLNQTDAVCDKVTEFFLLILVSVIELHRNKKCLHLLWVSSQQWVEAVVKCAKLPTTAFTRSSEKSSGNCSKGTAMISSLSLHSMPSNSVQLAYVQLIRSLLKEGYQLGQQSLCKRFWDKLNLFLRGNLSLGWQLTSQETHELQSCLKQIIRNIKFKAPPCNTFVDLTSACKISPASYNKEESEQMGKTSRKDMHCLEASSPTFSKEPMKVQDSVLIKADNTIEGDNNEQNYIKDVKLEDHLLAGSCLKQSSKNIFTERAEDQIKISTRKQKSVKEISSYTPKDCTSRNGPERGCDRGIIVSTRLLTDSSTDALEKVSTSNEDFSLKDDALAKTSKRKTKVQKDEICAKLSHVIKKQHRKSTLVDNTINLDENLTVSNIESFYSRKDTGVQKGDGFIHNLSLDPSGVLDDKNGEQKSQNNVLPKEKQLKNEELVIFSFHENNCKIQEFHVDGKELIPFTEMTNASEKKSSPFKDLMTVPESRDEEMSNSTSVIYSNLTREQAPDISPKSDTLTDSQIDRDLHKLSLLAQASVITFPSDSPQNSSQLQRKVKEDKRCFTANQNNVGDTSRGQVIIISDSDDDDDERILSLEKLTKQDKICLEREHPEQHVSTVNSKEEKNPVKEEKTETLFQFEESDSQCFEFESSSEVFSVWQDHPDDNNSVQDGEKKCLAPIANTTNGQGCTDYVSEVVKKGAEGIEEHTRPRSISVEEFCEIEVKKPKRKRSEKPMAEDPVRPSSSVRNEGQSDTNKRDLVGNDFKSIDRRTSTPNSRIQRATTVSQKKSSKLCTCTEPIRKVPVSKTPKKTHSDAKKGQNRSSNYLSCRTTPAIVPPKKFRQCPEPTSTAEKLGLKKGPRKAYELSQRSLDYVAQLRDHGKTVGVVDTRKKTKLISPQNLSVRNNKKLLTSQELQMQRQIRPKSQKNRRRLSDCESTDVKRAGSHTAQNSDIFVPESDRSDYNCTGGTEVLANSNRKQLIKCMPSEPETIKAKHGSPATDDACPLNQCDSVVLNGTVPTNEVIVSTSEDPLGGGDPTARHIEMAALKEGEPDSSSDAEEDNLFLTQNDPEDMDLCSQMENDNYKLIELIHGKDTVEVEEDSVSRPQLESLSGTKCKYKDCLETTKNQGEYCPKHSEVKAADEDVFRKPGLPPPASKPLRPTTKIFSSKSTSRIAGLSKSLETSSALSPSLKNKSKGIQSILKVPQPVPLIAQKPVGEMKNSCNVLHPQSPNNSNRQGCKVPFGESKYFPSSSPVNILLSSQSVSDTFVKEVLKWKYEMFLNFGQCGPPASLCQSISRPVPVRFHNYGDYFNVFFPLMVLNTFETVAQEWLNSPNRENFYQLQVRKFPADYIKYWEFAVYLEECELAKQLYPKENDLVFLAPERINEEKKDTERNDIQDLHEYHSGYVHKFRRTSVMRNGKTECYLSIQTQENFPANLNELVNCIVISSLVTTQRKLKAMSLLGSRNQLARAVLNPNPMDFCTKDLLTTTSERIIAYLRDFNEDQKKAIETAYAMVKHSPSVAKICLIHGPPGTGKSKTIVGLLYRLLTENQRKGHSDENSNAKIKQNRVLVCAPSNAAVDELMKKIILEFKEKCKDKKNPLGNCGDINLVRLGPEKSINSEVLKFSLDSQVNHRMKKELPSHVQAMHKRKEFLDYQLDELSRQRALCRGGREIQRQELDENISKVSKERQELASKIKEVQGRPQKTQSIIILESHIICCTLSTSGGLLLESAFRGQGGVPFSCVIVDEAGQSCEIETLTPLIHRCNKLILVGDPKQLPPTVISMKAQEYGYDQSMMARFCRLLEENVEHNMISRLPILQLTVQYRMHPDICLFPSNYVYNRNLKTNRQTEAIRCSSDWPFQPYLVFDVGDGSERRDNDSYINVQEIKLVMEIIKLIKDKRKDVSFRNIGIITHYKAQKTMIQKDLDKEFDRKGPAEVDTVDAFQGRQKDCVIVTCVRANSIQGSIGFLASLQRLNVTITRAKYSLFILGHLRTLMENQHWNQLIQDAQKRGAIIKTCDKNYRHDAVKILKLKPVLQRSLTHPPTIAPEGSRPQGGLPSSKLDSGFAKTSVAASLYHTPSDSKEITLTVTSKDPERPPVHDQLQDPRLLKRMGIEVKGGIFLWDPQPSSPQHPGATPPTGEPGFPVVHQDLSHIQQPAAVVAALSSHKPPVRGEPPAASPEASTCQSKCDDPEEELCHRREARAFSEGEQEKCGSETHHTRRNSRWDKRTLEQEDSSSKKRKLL

## GFP-GR30 (peptide)
  percent reduction of the co-IP band upon RNase A treatment: 32%

Reference: paper PMC10580588
